Measurements from article PMC10202413.

Biological target: T1, protein tyrosine kinase 7 (PTK-7) on HCT-116 cells (UniProt Q13308)
T1 sequence: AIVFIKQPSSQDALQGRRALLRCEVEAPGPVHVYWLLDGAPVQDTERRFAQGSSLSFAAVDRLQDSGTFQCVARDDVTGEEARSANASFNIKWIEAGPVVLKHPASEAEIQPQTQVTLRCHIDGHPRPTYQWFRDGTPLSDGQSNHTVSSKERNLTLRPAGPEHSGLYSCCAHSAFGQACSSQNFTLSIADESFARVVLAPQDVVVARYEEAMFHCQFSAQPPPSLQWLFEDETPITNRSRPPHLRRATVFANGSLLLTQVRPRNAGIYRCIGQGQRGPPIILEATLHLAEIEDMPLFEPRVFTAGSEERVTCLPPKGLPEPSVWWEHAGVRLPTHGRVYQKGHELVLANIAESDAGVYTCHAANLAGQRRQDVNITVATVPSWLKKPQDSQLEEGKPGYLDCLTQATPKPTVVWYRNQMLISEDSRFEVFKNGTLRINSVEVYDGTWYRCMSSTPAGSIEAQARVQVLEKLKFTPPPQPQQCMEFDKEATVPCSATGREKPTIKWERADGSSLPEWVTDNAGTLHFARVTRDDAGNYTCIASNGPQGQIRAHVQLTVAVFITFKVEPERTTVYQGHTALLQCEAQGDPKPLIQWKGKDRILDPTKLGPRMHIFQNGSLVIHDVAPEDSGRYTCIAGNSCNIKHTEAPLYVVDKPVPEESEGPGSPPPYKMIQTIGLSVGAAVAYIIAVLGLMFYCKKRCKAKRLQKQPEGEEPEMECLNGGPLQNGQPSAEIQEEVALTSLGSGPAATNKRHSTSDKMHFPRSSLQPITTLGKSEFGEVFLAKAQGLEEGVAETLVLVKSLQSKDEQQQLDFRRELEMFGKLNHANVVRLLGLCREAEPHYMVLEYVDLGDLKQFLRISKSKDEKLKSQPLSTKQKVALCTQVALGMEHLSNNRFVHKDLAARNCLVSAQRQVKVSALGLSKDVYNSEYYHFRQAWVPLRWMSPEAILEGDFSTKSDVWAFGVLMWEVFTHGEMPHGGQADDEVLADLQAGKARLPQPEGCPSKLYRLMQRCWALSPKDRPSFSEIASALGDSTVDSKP
Assay: flow cytometry, cell binding
Details: 5 mM Mg2+, Whole cells washed in D-PBS with 4.5 g/L glucose and 5 mM MgCl2, 300,000 cells in 200 ul binding buffer (composition and pH not stated), on ice 30 min …

Sequence | Kd (5' amino coupled to p-SCN-Bn-NOTA) [nM] | Kd [nM]
ATCTAACTGCTGCGCCGCCGGGAAAATACTGTACGGTTAGA [NOTA-SGC8] | 3.49 | –
ATCTAACTGCTGCGCCGCCGGGAAAATACTGTACGGTTAGA [SGC8] | – | 1.88
